Measurements reported in publication PMC4674748, “Identification of the Replication Origins from Cyanothece ATCC 51142 and Their Interactions with the DnaA Protein: From In Silico to In Vitro Studies”.

Target: T1, His6-DnaA (IV) (Cyanothece ATCC 51142, UniProt B1X0X6 331-455)
T1 sequence: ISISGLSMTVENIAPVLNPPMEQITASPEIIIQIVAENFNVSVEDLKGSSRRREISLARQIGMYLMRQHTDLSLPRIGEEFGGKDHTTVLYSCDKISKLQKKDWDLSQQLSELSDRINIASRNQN
Assay: EMSA; 5-100 nM protein; 3 mM ATP, poly(dI-dC); better affinity than Lbox23; EMSA: 20 mM Hepes/KOH pH 8.0, 5 mM Mg acetate, 1 mM Na2EDTA, 4 mM DTT, 0.2% Triton X-100, 3 mM ATP, 5 mg/mL BSA, poly(dI-dC), 37 C 30 min; footprint: 25 C 30 min, 400 ng probe in 40 uL
Settings: protein: recombinant; tags: N-terminal His6 (pET-28a, BamHI/HindIII); blunt

B1: Cbox23 (2Box2B, 35 nt) (dsDNA)
DNA 1: CCTTTAAATTTTTCCACAGTTTTTCCACAGCATTA
DNA 2: TAATGCTGTGGAAAAACTGTGGAAAAATTTAAAGG
Question: Does B1 bind?
Answer: binds
